Assay results from publication PMC4490564, “Molecular snapshots of the Pex1/6 AAA+ complex in action” (Nature Communications, 2015).

T1: Pex1 (wild type, from HisPex1GST after thrombin cleavage) (yeast, UniProt P24004 1-1043)
T1 construct: Pex1, yeast, type II AAA+ ATPase; PEX1 amplified from genomic DNA; 1,043 amino acids (from the range printed for Δ188PEX1); also called Pex1 of Pex1/6; source: E. coli Tuner (DE3), purified together with HisPex6 (Ni-NTA agarose, glutathione agarose, eluted by thrombin cleavage); not shown: GST, C-terminal, cleaved
T1 sequence (looked up): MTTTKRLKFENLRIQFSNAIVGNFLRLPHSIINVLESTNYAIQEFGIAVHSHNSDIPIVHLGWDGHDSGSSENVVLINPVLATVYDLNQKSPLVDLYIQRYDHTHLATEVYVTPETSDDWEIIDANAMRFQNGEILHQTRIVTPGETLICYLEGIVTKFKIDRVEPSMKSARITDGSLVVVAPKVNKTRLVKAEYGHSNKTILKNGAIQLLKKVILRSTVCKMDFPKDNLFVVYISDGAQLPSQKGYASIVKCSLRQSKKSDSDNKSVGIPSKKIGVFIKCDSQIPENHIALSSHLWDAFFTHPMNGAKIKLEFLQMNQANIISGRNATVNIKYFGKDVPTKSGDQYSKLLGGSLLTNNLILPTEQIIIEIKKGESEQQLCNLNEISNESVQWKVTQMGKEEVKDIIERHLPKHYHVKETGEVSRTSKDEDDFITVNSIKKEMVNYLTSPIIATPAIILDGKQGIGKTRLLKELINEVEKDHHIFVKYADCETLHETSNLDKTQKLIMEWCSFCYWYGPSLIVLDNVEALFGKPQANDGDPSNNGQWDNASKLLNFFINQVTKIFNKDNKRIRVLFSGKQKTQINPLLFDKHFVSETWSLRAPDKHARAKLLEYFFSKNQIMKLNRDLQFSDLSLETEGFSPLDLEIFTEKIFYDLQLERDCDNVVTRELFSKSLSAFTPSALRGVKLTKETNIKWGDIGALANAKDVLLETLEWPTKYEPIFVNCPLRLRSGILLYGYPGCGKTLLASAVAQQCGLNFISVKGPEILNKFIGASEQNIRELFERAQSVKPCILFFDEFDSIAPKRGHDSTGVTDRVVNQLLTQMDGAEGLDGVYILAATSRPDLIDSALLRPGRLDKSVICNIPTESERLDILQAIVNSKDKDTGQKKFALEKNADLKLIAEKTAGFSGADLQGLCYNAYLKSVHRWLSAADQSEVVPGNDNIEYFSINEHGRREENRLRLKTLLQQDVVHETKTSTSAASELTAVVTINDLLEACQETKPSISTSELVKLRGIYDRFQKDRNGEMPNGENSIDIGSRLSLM

T2: Pex1GST (Pex1 with the C-terminal GST kept) (yeast, UniProt P24004 1-1043)
T2 construct: Pex1, yeast; PEX1 cloned into pRSFDuet-cGST (GST with a thrombin cleavage site); also called HisPex1GST; source: E. coli Tuner (DE3), purified; not shown: GST, C-terminal, kept
T2 sequence (looked up): T1 sequence (looked up)

T3: Pex6 (wild type, overexpressed in yeast) (yeast, UniProt P33760 1-1030)
T3 construct: Pex6, yeast; full-length PEX6 amplified from genomic DNA, in pRS425GAL or pYES2; also called Pex6 of Δ188Pex1/Pex6 and of Pex1WB/6; source: S. cerevisiae, overexpressed (2% galactose), purified (IgG Sepharose, TEV cleavage, glycerol gradient); not shown: protein A (ProA), C-terminal, cleaved
T3 sequence (looked up): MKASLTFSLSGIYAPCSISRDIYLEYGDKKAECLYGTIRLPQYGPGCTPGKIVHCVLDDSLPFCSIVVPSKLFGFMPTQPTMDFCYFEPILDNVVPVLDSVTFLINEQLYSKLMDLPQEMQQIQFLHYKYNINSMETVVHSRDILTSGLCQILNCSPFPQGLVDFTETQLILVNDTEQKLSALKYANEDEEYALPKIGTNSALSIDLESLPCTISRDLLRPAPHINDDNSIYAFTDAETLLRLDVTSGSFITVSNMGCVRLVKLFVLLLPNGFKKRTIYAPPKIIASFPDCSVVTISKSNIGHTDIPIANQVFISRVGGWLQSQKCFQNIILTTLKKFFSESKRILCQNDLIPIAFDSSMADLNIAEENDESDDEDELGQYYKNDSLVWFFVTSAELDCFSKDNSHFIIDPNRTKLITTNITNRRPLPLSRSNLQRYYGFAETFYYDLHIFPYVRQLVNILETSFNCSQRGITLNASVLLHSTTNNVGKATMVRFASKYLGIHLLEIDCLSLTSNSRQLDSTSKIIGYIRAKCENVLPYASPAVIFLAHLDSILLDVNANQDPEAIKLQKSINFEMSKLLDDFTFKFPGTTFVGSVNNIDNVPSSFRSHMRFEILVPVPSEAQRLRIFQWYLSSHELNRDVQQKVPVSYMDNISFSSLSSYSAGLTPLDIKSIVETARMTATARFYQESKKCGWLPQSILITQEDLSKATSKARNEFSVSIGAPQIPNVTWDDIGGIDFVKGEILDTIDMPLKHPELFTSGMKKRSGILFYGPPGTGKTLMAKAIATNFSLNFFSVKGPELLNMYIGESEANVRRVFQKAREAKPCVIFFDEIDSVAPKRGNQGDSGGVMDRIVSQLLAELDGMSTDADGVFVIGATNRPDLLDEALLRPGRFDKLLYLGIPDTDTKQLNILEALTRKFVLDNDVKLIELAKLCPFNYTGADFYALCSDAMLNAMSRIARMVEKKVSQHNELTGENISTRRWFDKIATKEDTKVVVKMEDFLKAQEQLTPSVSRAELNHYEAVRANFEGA

B1: Pex6 (wild type, HisPex6) (natural protein, yeast, UniProt P33760 1-1030, looked up)
chain: T3 sequence (looked up)
notes: Pex6, yeast, type II AAA+ ATPase; PEX6 amplified from genomic DNA; also called Pex6 of Pex1/6
B2: Δ188Pex1 (N-terminal truncation mutant of Pex1) (domain or fragment, yeast, UniProt P24004 189-1043, looked up)
chain: RLVKAEYGHSNKTILKNGAIQLLKKVILRSTVCKMDFPKDNLFVVYISDGAQLPSQKGYASIVKCSLRQSKKSDSDNKSVGIPSKKIGVFIKCDSQIPENHIALSSHLWDAFFTHPMNGAKIKLEFLQMNQANIISGRNATVNIKYFGKDVPTKSGDQYSKLLGGSLLTNNLILPTEQIIIEIKKGESEQQLCNLNEISNESVQWKVTQMGKEEVKDIIERHLPKHYHVKETGEVSRTSKDEDDFITVNSIKKEMVNYLTSPIIATPAIILDGKQGIGKTRLLKELINEVEKDHHIFVKYADCETLHETSNLDKTQKLIMEWCSFCYWYGPSLIVLDNVEALFGKPQANDGDPSNNGQWDNASKLLNFFINQVTKIFNKDNKRIRVLFSGKQKTQINPLLFDKHFVSETWSLRAPDKHARAKLLEYFFSKNQIMKLNRDLQFSDLSLETEGFSPLDLEIFTEKIFYDLQLERDCDNVVTRELFSKSLSAFTPSALRGVKLTKETNIKWGDIGALANAKDVLLETLEWPTKYEPIFVNCPLRLRSGILLYGYPGCGKTLLASAVAQQCGLNFISVKGPEILNKFIGASEQNIRELFERAQSVKPCILFFDEFDSIAPKRGHDSTGVTDRVVNQLLTQMDGAEGLDGVYILAATSRPDLIDSALLRPGRLDKSVICNIPTESERLDILQAIVNSKDKDTGQKKFALEKNADLKLIAEKTAGFSGADLQGLCYNAYLKSVHRWLSAADQSEVVPGNDNIEYFSINEHGRREENRLRLKTLLQQDVVHETKTSTSAASELTAVVTINDLLEACQETKPSISTSELVKLRGIYDRFQKDRNGEMPNGENSIDIGSRLSLM
notes: Pex1, yeast, gene segment corresponding to amino acids 189-1,043; source: S. cerevisiae, overexpressed (2% galactose), purified (IgG Sepharose, TEV cleavage, glycerol gradient); not shown: protein A (ProA), C-terminal, cleaved

Legend:
Test in all cases: negative stain EM (single-particle analysis, 3D reconstruction); purified complexes at 40-50 ug/ml, incubated with ATPγS (2.5 mM), ATP (5 mM), ADP (5 mM) or ADP-AlFx, adsorbed on carbon grids, stained with 2% uranyl acetate; threefold symmetry imposed
Settings in all cases: both partners purified
[1] = molecular target: T1, Pex1 (wild type, from HisPex1GST after …)
[2] = molecular target: T2, Pex1GST (Pex1 with the C-terminal GST …)
[3] = molecular target: T3, Pex6 (wild type, overexpressed in yeast)

| Binder | binding result [1] | binding result [2] | binding result [3] |
| --- | --- | --- | --- |
| B1 | binds | binds | – |
| B2 | – | – | binds |
